Among the data in publication PMC11760725 are K half values, retold here.

Data set [1] addresses T1, Reb1 (Saccharomyces cerevisiae) (UniProt P21538).
T1 sequence: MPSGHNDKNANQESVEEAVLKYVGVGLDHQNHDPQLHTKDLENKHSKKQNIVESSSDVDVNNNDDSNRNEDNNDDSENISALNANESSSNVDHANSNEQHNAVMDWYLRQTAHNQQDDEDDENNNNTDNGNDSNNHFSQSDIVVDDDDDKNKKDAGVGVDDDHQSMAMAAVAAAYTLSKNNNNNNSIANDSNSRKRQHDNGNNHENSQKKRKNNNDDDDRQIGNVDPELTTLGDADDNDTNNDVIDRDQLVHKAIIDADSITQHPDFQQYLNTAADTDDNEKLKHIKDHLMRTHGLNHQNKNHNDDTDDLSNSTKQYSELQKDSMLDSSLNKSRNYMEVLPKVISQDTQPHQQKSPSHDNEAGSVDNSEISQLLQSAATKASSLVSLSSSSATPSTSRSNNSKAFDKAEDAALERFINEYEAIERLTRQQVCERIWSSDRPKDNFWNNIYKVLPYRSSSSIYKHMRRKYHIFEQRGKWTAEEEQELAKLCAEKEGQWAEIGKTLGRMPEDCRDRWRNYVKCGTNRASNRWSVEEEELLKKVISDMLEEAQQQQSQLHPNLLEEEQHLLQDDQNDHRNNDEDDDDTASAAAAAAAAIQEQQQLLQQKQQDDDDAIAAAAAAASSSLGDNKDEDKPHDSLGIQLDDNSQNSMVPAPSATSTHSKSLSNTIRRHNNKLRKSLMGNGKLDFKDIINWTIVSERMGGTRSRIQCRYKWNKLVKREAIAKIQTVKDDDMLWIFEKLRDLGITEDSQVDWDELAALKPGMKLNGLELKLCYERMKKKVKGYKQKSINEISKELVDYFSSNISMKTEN
The data set is described as follows: ensemble FRET.

The target in data set [2] is Cbf1 (Saccharomyces cerevisiae) (UniProt P17106). The data set is described as follows: EMSA. In general terms: A gel shift assay detects complexes by their altered migration in electrophoresis.
Data set [3] has the same target. As to the kind of experiment: ensemble FRET.

Chain of UniProt P17106 (P17106 whole entry): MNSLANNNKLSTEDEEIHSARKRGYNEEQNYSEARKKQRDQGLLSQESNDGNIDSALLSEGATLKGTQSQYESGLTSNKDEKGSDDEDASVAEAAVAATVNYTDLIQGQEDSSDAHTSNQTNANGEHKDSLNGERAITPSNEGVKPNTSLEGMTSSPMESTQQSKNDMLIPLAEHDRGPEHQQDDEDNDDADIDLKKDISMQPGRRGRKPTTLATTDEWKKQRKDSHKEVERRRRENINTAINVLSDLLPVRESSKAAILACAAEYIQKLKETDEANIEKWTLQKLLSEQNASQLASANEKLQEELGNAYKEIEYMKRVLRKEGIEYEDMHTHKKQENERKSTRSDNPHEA

In the case of “601 Reb1p8 Cy3-proximal 207 bp nucleosome”, the K half in data set [1] was 0.75 nM. In data set [1], “GCTTTGACCGGGTAACACGAACAGAAAGATGGAGGAGACCAATCAGTCAGTGAATCAGATGCTGATGAAGGCTGGGAAGATATTCCTGTCTACGTTAAAGCCTTTGCAGAGTTTGAATCAAAGAAAAGATTACAAAAAATTCGCCGACAGGAAGAAATAAAAAAGAGGACAGCTTTGGTTTGAAGCAAATATATATTATTGAAAAGC (double strand) [YNN1 Reb1p8 Cy3-proximal 207 bp nucleosome]” came in with a K half of 1.5 nM. With “GCTTTGAGGTCACGTGACCAACAGAAAGATGGAGGAGACCAATCAGTCAGTGAATCAGATGCTGATGAAGGCTGGGAAGATATTCCTGTCTACGTTAAAGCCTTTGCAGAGTTTGAATCAAAGAAAAGATTACAAAAAATTCGCCGACAGGAAGAAATAAAAAAGAGGACAGCTTTGGTTTGAAGCAAATATATATTATTGAAAAGC (double strand) [YNN1 Cbf1p8 nucleosome]”, the results for the K half in data set [2] and in data set [3] were 0.8 nM and 1.5 nM, respectively.
